According to the Human Domainome abundance scans (Beltran et al. 2025):
± gives the uncertainty stated by the source.

B1: Homeobox protein cut-like 1, residues 941 to 1008; numbered along this chain, P39880 (parent)
chain: QEVDTIELTRQVKEKLAKNGICQRIFGEKVLGLSQGSVSDMLSRPKPWSKLTQKGREPFIRMQLWLNG

Variants of: B1
Test: abundance fitness (aPCA) (normalised: wild type 0, dead -1); higher = more abundant; growth selection in yeast, the domain comes from the species named
Settings: Homo sapiens

Variant | abundance fitness
QEVDTIELTRQVKEKLAKNGICQRIFGEKVLGLSQGSVSDMLSRPKPWSKLTQKGRFPFIRMQLWLNG [E57F] | -0.294 ± 0.12
QEVDTIELPRQVKEKLAKNGICQRIFGEKVLGLSQGSVSDMLSRPKPWSKLTQKGREPFIRMQLWLNG [T9P] | -0.28 ± 0.068
QEVDTIELDRQVKEKLAKNGICQRIFGEKVLGLSQGSVSDMLSRPKPWSKLTQKGREPFIRMQLWLNG [T9D] | -0.168 ± 0.14
QIVDTIELTRQVKEKLAKNGICQRIFGEKVLGLSQGSVSDMLSRPKPWSKLTQKGREPFIRMQLWLNG [E2I] | -0.085 ± 0.031
QEVDTIELTRQVKEKLAKNGICQRIFGEKVLGLSQGSVSDMLSRPKPWSKLTQKGREPFIRMQLWLNA [G68A] | -0.046 ± 0.085
QEVDTIELTRQVKEKPAKNGICQRIFGEKVLGLSQGSVSDMLSRPKPWSKLTQKGREPFIRMQLWLNG [L16P] | 0.004 ± 0.068
QEVDTIELTRQVKEKRAKNGICQRIFGEKVLGLSQGSVSDMLSRPKPWSKLTQKGREPFIRMQLWLNG [L16R] | -0.033 ± 0.056
QEVDTIELTRQVKEKLAKNGICQRIFGEKPLGLSQGSVSDMLSRPKPWSKLTQKGREPFIRMQLWLNG [V30P] | 0.123 ± 0.4
QEVDTIELTRQVKEKLHKNGICQRIFGEKVLGLSQGSVSDMLSRPKPWSKLTQKGREPFIRMQLWLNG [A17H] | -0.108 ± 0.11
QEVDTIELTRQVKEKLAKNGICQRIFGEKVLGLSQGSVSDMLSRPKPWSKLTQKGREPFIRMQLWLSG [N67S] | -0.031 ± 0.061
QECDTIELTRQVKEKLAKNGICQRIFGEKVLGLSQGSVSDMLSRPKPWSKLTQKGREPFIRMQLWLNG [V3C] | -0.486 ± 0.17
QEVDTIELTRQVKEWLAKNGICQRIFGEKVLGLSQGSVSDMLSRPKPWSKLTQKGREPFIRMQLWLNG [K15W] | -0.238 ± 0.083
QEVDTIELTRQVKEKLAKNGICQRIFGEKVLGLSQGSVSDMLSRPKPWSKLTQKGREPFIRMQMWLNG [L64M] | -0.049 ± 0.067
QEVDTIELTRQVKEKLAKNGICQRIFGEKVLGLSQGSVSDMLSRPKPWSKLTQKGREPFIRMQHWLNG [L64H] | -0.137 ± 0.12
QEVDTIELTRQVKEKLAKNGICQRIFGEKVLFLSQGSVSDMLSRPKPWSKLTQKGREPFIRMQLWLNG [G32F] | -0.313 ± 0.079
QEVDTIELTRQVKEKLAKNGICQRIFGEKVLGLSQGSVSDMLSRPKPWSKLTQKWREPFIRMQLWLNG [G55W] | -0.189 ± 0.069
QEVDTIELTRQVKEKLAKNGICQRIFGEKVLGLSQGSVSDMLSRPKPWSKLTQKEREPFIRMQLWLNG [G55E] | 0.17 ± 0.072
QEVDWIELTRQVKEKLAKNGICQRIFGEKVLGLSQGSVSDMLSRPKPWSKLTQKGREPFIRMQLWLNG [T5W] | -0.176 ± 0.06
QEVDTIELTRQVKEKLAKNGICQRIFGEKVLGLSQGSFSDMLSRPKPWSKLTQKGREPFIRMQLWLNG [V38F] | 0.048 ± 0.13
QEVDTIELTRQVKEKLAKNGICQRIFGCKVLGLSQGSVSDMLSRPKPWSKLTQKGREPFIRMQLWLNG [E28C] | -0.286 ± 0.11

Variant | abundance fitness
QEVDTIELTRQVKEKLAKNGICQRIFGAKVLGLSQGSVSDMLSRPKPWSKLTQKGREPFIRMQLWLNG [E28A] | -0.036 ± 0.057
QEVDTIELTRQVKEKLAKNGICQRIFGDKVLGLSQGSVSDMLSRPKPWSKLTQKGREPFIRMQLWLNG [E28D] | -0.307 ± 0.11
QEVDTIELTRQVKEKLAKNGICQRIFGEKVLGLSQGSVSDMLSRPKPWAKLTQKGREPFIRMQLWLNG [S49A] | -0.072 ± 0.074
QEVDTIELTRQVKEKLAKNGICQRIFGEKVLGLSQGSVSDMLSRPKPWSLLTQKGREPFIRMQLWLNG [K50L] | -0.104 ± 0.049
QEVDTIELTRQVKEKLAKNGICQRIFGEKVLGLSQGSVKDMLSRPKPWSKLTQKGREPFIRMQLWLNG [S39K] | 0.039 ± 0.061
QEVDTIELTRQVKEKLAKNGIPQRIFGEKVLGLSQGSVSDMLSRPKPWSKLTQKGREPFIRMQLWLNG [C22P] | -0.069 ± 0.077
QEVDTIELTRQVKEKLAKNGIMQRIFGEKVLGLSQGSVSDMLSRPKPWSKLTQKGREPFIRMQLWLNG [C22M] | -0.062 ± 0.077
QEVDTIELTRQVKEKLAKNGICQRIFGEKVLGRSQGSVSDMLSRPKPWSKLTQKGREPFIRMQLWLNG [L33R] | -0.213 ± 0.059
QEVDTIELTRQVKEKLAKNGICQRIFGEKVLGLSQGSVSDMLSRPKQWSKLTQKGREPFIRMQLWLNG [P47Q] | -0.068 ± 0.074
QEVDTIELTRQRKEKLAKNGICQRIFGEKVLGLSQGSVSDMLSRPKPWSKLTQKGREPFIRMQLWLNG [V12R] | -0.131 ± 0.052
QEVDTIELTRTVKEKLAKNGICQRIFGEKVLGLSQGSVSDMLSRPKPWSKLTQKGREPFIRMQLWLNG [Q11T] | -0.142 ± 0.061
QEVDTIELTRWVKEKLAKNGICQRIFGEKVLGLSQGSVSDMLSRPKPWSKLTQKGREPFIRMQLWLNG [Q11W] | -0.448 ± 0.058
QEVDTIELTRQVKEKLAKNGICQRIFGEKVLGLSQGSVSDMLSRPKPWSKLTQKGAEPFIRMQLWLNG [R56A] | -0.479 ± 0.086
QEVDTIELTRQVKEKLAKNGICQRIFGEKVLGLSQGSVSDMLSRPKPWSKLTQKGCEPFIRMQLWLNG [R56C] | -0.525 ± 0.11
QEVDTIELTRQVKEKLAKWGICQRIFGEKVLGLSQGSVSDMLSRPKPWSKLTQKGREPFIRMQLWLNG [N19W] | -0.234 ± 0.082
QEVDTIELTRQVKEKLAKNGICQRIFGEKVLGLSQGSVSDMLSRSKPWSKLTQKGREPFIRMQLWLNG [P45S] | -0.063 ± 0.057
QEVDTIELTRQVKEKLAKNGICQRIFGEKVLGLSQGSVSDMWSRPKPWSKLTQKGREPFIRMQLWLNG [L42W] | -0.134 ± 0.076
QEVDTIELTRQVKEKLAKNGICQRIFGEKVLGLSQGSVSDMLSRPKPWSKLTQKGREPFKRMQLWLNG [I60K] | 0.013 ± 0.081
QEVDTIELTRQVKEKLAKNGICQRIFGEKVLGLSIGSVSDMLSRPKPWSKLTQKGREPFIRMQLWLNG [Q35I] | -0.116 ± 0.089
QEVDTIELTRQVKEKLAKNGICQRIFGEKVLGLSQGSVSDMLSRPKPWSKLHQKGREPFIRMQLWLNG [T52H] | -0.394 ± 0.16
